The values that follow come from patent publication CN110343173A (INST MICROBIOLOGY CAS, dated 2019).

Test [1] addresses YFV CNYF01/2016 (YFV-China) 毒株膜蛋白E蛋白胞外区, C端6xHis标签, 大肠杆菌表达复性 (yellow fever virus, strain CNYF01/2016 …, UniProt Q1X881 286-683).
In the next test the target is YFV China病毒 (E蛋白, 病毒颗粒上) (yellow fever virus, strain CNYF01/2016 …, UniProt Q1X881 286-683). As to the kind of experiment: cell-based or functional assay.

In general, Kd refers to a measure of binding affinity in units of concentration.

Sequence of YFV CNYF01/2016 (YFV-China) 毒株膜蛋白E蛋白胞外区, C端6xHis标签, 大肠杆菌表达复性 (Q1X881 286-683, tags left off): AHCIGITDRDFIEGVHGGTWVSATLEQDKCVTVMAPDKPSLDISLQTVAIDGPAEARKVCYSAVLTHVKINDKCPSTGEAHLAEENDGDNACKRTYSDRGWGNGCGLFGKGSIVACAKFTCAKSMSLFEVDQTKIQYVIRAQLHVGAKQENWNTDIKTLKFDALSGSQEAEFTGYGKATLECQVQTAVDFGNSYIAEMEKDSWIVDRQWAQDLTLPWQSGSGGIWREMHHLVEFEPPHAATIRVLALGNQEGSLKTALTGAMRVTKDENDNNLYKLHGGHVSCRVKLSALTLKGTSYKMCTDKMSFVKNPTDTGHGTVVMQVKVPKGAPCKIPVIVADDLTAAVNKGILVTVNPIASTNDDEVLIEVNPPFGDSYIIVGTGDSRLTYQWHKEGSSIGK
Sequence of YFV China病毒 (E蛋白, 病毒颗粒上) (Q1X881 286-683, tags left off): as above

B1: 人源单克隆抗体YD73 (antibody, V domains shown)
VH: QVQLVQSGAEVKKPGASVKVSCKASGYTFIAYGISWVRQAPGQGLEWMGWISAHNGNTNYAQKFQGRVTVTTDTTTRTAFMELRNLRSDDTAVYYCARAPWEYNYRSSGYYDSPYWGQGTLVTVSS
VL: EIVLTQSPGTLSLSPGERATLSCRASQSVVSTYLAWYQQKPGQAPRLLIYDTSTRATGIPDRFSGSGSGTDFTLTISRLEPEDFAVYYCQHYDSSPPWTFGQGTKVEIKR
B1: the equilibrium dissociation constant (Kd) in test [1] is 0.588 nM. Further, the “中和试验 IC50 (Vero细胞感染, FACS检测阳性细胞比例)” value with YFV China病毒 (E蛋白, 病毒颗粒上) turned out to be 3.7 ng/mL.
